This is an account of results in patent US20130059773A1, “COMPOUNDS FOR THE TREATMENT OF INFLAMMATION AND NEUTROPENIA” (priority 2010, published 2013).

Test [1] relates to neutrophils. In words: Neutrophil apoptosis/survival by phosphatidylserine externalization after annexin-V and 7-AAD labeling. In kind it is cell-based, human. The note with it: G-CSF 200 or 1000 U/ml, 15 h at 37° C. As for the experimental part:
Analysis of apoptosis. Neutrophil apoptosis was triggered by incubating neutrophils at 37° C. alone (constitutive apoptosis) or with anti-Fas mAb (10 ng/ml; Beckman-Coulter) or gliotoxin ([…]; Sigma) (Ward et al. 1999, J. Biol. Chem. 274:4309-4318) for the indicated times. Neutrophil apoptosis was evaluated by phosphatidylserine externalization after annexin-V and 7-AAD labeling (Kantari et al. 2007, Blood 110:4086-4095); mitochondrial depolarization after DiOC6 labeling (Moriceau et al. 2009, J. Immuno1.182:7254-7263); caspase-3 and caspase-8 activities measured by spectrophotometry (Biovision) in neutrophil lysates. In DMF-differentiated-PLB985 cells, apoptosis was triggered by gliotoxin or by rTRAIL (10 ng/ml; RD System) (Yin et al. 2005, Int. J. Biochem. Cell Biol. 37:1696-1708) and caspase-8 and caspase-9 activities were determined after gating on CD11b^+ cells using the Caspase-Glow® assay (Promega). Apoptosis-induced chromatin condensation and DNA fragmentation were assessed, respectively, after DNA staining with the blue fluorescent dye Hoechst (5 mg/ml) and propidium-iodide staining (Goepel et al. 2004, J. Leukoc. Biol. 75:836-843). Carboxyp21 ([…], SEQ ID NO: 24) corresponding to the p21 carboxy-terminus sequence (residues 141-160) and containing a RYIRS carboxy-terminal extension to facilitate its cell entry was synthesized and purified (Genecust). […]

The test system of the next test is PCNA. The test is described as follows: PCNA expression in neutrophils by Western blot. Type of test: cell-based, human. Conditions: G-CSF 1000 U/ml, 6 h to 15 h. On the procedure: Western blot analysis and co-immunoprecipitation experiments. Neutrophils were sonicated and cytosolic proteins were analyzed using either the PC10 mAb or the Ab5 pAb anti-PCNA according to standard immunoblot procedures (Moriceau et al. 2009, J. Immunol. 182:7254-7263). Co-immunoprecipitation experiments were performed using neutrophil cytosols obtained by cavitation (Witko-Sarsat et al. 1999, Blood 94:2487-2496). Cytosol ([…]) was mixed with […] of protein G and Ab5 pAb and incubated for 30 min at 4° C. under shaking. The sample was loaded onto a column containing Sepharose-coated magnetic beads (Milteny), washed with a stringent washing buffer (50 mM Tris, 500 mM NaCl, 1% NP-40, 0.5% Triton X-100). […] The sample was eluted from the column with […] 5× sample buffer and analyzed by Western blotting using different mAb to potential partners. PCNA was detected on the Western blot with the PC10 mAb and procaspases were detected with either anti-procaspase-8 (Calbiochem) mAb or mouse anti-procaspase-10 (Santa Cruz) or anti-procaspase-9 (Santa Cruz) or anti-procaspase-3 (Santa Cruz) mAbs, followed by horseradish peroxidase-conjugated anti-mouse IgG (Nordic Immunology diluted 1:5000), using the SuperSignal West Pico detection kit (Pierce).
On the technique in general: In western blotting, separated proteins are transferred to a membrane and probed.

Test [2] relates to neutrophils. In words: Neutrophils isolated from G-CSF-treated healthy donors: PCNA content and constitutive apoptosis. Type of test: in vivo, human. On the procedure:
Neutrophil isolation, granulocytic differentiation of CD34^+ precursors and cell culture. Human neutrophils from healthy (Etablissement Francais du Sang, Paris) or G-CSF-treated healthy donors ([…] for 5 days to induce hematopoietic stem cells mobilization) (Biotherapy Department, Necker Hospital, France) were isolated from EDTA-anticoagulated blood, using density-gradient centrifugation through polymorphoprep (Nycomed), as described in Witko-Sarsat et al. (1999, Blood 94:2487-2496). […]
Western blot analysis and co-immunoprecipitation experiments. Neutrophils were sonicated and cytosolic proteins were analyzed using either the PC10 mAb or the Ab5 pAb anti-PCNA according to standard immunoblot procedures (Moriceau et al. 2009, J. Immunol. 182:7254-7263). […] The sample was eluted from the column with […] 5× sample buffer and analyzed by Western blotting using different mAb to potential partners. PCNA was detected on the Western blot with the PC10 mAb and procaspases were detected with either anti-procaspase-8 (Calbiochem) mAb or mouse anti-procaspase-10 (Santa Cruz) or anti-procaspase-9 (Santa Cruz) or anti-procaspase-3 (Santa Cruz) mAbs, followed by horseradish peroxidase-conjugated anti-mouse IgG (Nordic Immunology diluted 1:5000), using the SuperSignal West Pico detection kit (Pierce).

The target in another test is T1, procaspase-9 (Homo sapiens, UniProt P55211).
T1 construct: using neutrophil cytosol containing all the apoptosome components, i.e., procaspase-9; endogenous in cells; host or cells: neutrophil cytosol (primary neutrophils)
T1 sequence (P55211 1-416): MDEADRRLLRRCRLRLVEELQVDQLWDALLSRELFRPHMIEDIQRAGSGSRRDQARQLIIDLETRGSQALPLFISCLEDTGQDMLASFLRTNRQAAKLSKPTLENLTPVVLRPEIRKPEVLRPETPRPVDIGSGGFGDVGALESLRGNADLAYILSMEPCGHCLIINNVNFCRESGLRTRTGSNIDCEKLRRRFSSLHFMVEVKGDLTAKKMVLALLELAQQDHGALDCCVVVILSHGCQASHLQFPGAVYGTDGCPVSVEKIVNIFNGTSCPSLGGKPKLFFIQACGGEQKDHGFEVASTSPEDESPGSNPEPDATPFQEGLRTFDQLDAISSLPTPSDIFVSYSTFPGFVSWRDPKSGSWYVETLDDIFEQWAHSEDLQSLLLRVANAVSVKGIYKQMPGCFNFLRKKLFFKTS
In words: In vitro procaspase-9 activation assay using neutrophil cytosol, cytochrome c and dATP. In kind it is biochemical. Further details: dose or concentration left out as unconfirmed.

Procedure for procaspase-9: That hypothesis was tested by evaluating procaspase-9 cleavage in an in vitro assay, using neutrophil cytosol containing all the apoptosome components, i.e., procaspase-9 and apoptotic protease-activating factor-1 (Apaf-1) as previously described (McStay et al. 2008; Cell Death Differ. 15:322-331).

B1: G-CSF: survival factor extending neutrophil longevity (protein, UniProt P09919 31-207, looked up)
Granulocyte …: TPLGPASSLPQSFLLKCLEQVRKIQGDGAALQEKLVSECATYKLCHPEELVLLGHSLGIPWAPLSSCPSQALQLAGCLSQLHSGLFLYQGLLQALEGISPELGPTLDTLQLDVADFATTIWQQMEELGMAPALQPTQGAMPAFASAFQRRAGGVLVASHLQSFLEVSYRVLRHLAQP
As to B1, the “Neutrophil survival (annexin-V− 7-AAD− cells)” value in the test with neutrophils [1] was “prolonged neutrophil survival”. The “Effect on decrease of PCNA expression during incubation at 37° C.” value in the test on PCNA was “totally prevented”. In addition, the “PCNA content of neutrophils from treated donors (immunoblotting)” value in the test on neutrophils [2] (healthy donors treated with G-CSF for 5 days, compared to before treatment) is recorded as “markedly increased”. Besides, the “Constitutive apoptosis of neutrophils from treated donors” value with neutrophils [2] (healthy donors treated with G-CSF, 15-h culture) is listed as “decreased tendency of these neutrophils to undergo constitutive apoptosis”.

B2: Ovalbumin: control protein tested at the same concentration (protein, UniProt P01012 2-386, looked up)
Ovalbumin: GSIGAASMEFCFDVFKELKVHHANENIFYCPIAIMSALAMVYLGAKDSTRTQINKVVRFDKLPGFGDSIEAQCGTSVNVHSSLRDILNQITKPNDVYSFSLASRLYAEERYPILPEYLQCVKELYRGGLEPINFQTAADQARELINSWVESQTNGIIRNVLQPSSVDSQTAMVLVNAIVFKGLWEKAFKDEDTQAMPFRVTEQESKPVQMMYQIGLFRVASMASEKMKILELPFASGTMSMLVLLPDEVSGLEQLESIINFEKLTEWTSSNVMEERKIKVYLPRMKMEEKYNLTSVLMAMGITDVFSSSANLSGISSAESLKISQAVHAAHAEINEAGREVVGSAEAGVDAASVSEEFRADHPFLFCIKHIATNAVLFFGRCVSP
B2: in the test with procaspase-9, the “Procaspase-9 cleavage / activation” value is reported as “did not affect pro-caspase 9 activation”.
